Measured values: IntAct's records for PubMed 29039417

B1: BBSome complex member BBS2 (Homo sapiens), Q9BXC9 (parent)
chain: MLLPVFTLKLRHKISPRMVAIGRYDGTHPCLAAATQTGKVFIHNPHTRNQHVSASRVFQSPLESDVSLLSINQAVSCLTAGVLNPELGYDALLVGTQTNLLAYDVYNNSDLFYREVADGANAIVLGTLGDISSPLAIIGGNCALQGFNHEGSDLFWTVTGDNVNSLALCDFDGDGKKELLVGSEDFDIRVFKEDEIVAEMTETEIVTSLCPMYGSRFGYALSNGTVGVYDKTSRYWRIKSKNHAMSIHAFDLNSDGVNELITGWSNGKVDARSDRTGEVIFKDNFSSAIAGVVEGDYRMDGHIQLICCSVDGEIRGYLPGTAEMRGNLMDTSAEQDLIRELSQKKQNLLLELRNYEENAKAELASPLNEADGHRGIIPANTRLHTTLSVSLGNETQTAHTELRISTSNDTIIRAVLIFAEGIFTGESHVVHPSIHNLSSSICIPIVPPKDVPVDLHLKAFVGYRSSTQFHVFESTRQLPRFSMYALTSLDPASEPISYVNFTIAERAQRVVVWLGQNFLLPEDTHIQNAPFQVCFTSLRNGGHLHIKIKLSGEITINTDDIDLAGDIIQSMASFFAIEDLQVEADFPVYFEELRKVLVKVDEYHSVHQKLSADMADHSNLIRSLLVGAEDARLMRDMKTMKSRYMELYDLNRDLLNGYKIRCNNHTELLGNLKAVNQAIQRAGRLRVGKPKNQVITACRDAIRSNNINTLFKIMRVGTASS
partner: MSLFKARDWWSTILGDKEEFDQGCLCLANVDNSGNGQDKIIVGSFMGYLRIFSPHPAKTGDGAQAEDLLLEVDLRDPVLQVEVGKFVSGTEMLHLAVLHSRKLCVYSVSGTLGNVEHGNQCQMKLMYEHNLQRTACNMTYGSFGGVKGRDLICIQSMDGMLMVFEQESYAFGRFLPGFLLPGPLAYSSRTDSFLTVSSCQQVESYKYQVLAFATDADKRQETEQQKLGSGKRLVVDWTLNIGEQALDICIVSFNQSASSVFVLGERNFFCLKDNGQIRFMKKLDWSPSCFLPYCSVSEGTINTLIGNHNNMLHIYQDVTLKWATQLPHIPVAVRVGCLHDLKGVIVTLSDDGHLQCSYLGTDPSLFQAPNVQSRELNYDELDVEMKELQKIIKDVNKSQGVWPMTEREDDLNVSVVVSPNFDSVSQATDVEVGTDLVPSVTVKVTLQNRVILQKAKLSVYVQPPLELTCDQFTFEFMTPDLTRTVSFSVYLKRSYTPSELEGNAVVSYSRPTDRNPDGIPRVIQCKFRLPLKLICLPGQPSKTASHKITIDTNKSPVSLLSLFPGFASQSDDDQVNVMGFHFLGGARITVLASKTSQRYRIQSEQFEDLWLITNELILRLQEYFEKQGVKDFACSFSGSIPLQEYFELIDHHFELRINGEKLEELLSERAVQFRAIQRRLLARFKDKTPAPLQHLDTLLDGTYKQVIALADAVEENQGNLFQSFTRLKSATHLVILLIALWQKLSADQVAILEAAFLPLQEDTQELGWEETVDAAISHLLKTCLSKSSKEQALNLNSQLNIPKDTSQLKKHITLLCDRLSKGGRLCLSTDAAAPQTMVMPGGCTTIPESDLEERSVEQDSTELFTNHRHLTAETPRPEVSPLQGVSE
B2: BBSome complex member BBS4 (Homo sapiens), Q96RK4 (parent)
chain: MAEERVATRTQFPVSTESQKPRQKKAPEFPILEKQNWLIHLHYIRKDYEACKAVIKEQLQETQGLCEYAIYVQALIFRLEGNIQESLELFQTCAVLSPQSADNLKQVARSLFLLGKHKAAIEVYNEAAKLNQKDWEISHNLGVCYIYLKQFNKAQDQLHNALNLNRHDLTYIMLGKIHLLEGDLDKAIEVYKKAVEFSPENTELLTTLGLLYLQLGIYQKAFEHLGNALTYDPTNYKAILAAGSMMQTHGDFDVALTKYRVVACAVPESPPLWNNIGMCFFGKKKYVAAISCLKRANYLAPFDWKILYNLGLVHLTMQQYASAFHFLSAAINFQPKMGELYMLLAVALTNLEDIENAKRAYAEAVHLDKCNPLVNLNYAVLLYNQGEKKNALAQYQEMEKKVSLLKDNSSLEFDSEMVEMAQKLGAALQVGEALVWTKPVKDPKSKHQTTSTSKPASFQQPLGSNQALGQAMSSAAAYRTLPSGAGGTSQFTKPPSLPLEPEPAVESSPTETSEQIREK
partner: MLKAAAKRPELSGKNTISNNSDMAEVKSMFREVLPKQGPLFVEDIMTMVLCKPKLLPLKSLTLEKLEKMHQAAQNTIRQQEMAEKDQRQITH

Variants of: B1
Settings: with pthb1_human BBS9, Q3SYG4

Variant	effect of a mutation on the interaction
V694K	with no effect
I707K	with no effect
I707E	with no effect
I707A	with no effect
N708A	with no effect
N708E	with no effect
N708K	with no effect
D700K	with no effect
D700E	with no effect
D700A	with no effect
Q693K	with no effect
Q693A	with no effect
Q693E	with no effect
G717K	with no effect
G717E	with no effect
G717A	with no effect
R703E	with no effect
R703A	with no effect
R703K	with no effect
P690K	with no effect
P690E	with no effect
P690A	with no effect
A719K	with no effect
A719E	with no effect

Variant	effect of a mutation on the interaction
K689A	with no effect
K689E	with no effect
C698E	with no effect
C698A	with no effect
C698K	with no effect
K712A	with no effect
K712E	with no effect
M714E	with no effect
M714A	with no effect
M714K	with no effect
A697K	with no effect
A697E	with no effect
N692A	with no effect
N692E	with no effect
N692K	with no effect
S704K	with no effect
S704A	with no effect
S704E	with no effect
A701K	with no effect
A701E	with no effect
T718K	with no effect
T718E	with no effect
T718A	with no effect

Variants of: B2
Settings: with bbip1_human BBIP1, A8MTZ0

Variant	effect of a mutation on the interaction
MAEERVATRTQFPVSTESQKPRQKKAPEFPILEKQNWLIHLHYIRKDYEACKAVIKEQLQETQGLCEYAIYVQALIFRLEGNIQESLELFQTCAVLSPQSADNLKQVARSLFLLGKHKAAIEVYNEAAKLNQKDWEISHNLGVCYIYLKQFNKAQDQLHNALNLNRHDLTYIMLGKIHLLEGDLDKAIEVYKKAVEFSPENTELLTTLGLLYLQLGIYQKAFEHLGNALTYDPTNYKAILAAGSMMQTHGDFDVALTKYRVVACAVPESPPLWNNIGMCFFGKKKYVAAISCLKRANYLAPFDWKILYNLGLVHLTMQQYASAFHFPSAAINFQPKMGELYMLLAVALTNLEDIENAKRAYAEAVHLDKCNPLVNLNYAVLLYNQGEKKNALAQYQEMEKKVSLLKDNSSLEFDSEMVEMAQKLGAALQVGEALVWTKPVKDPKSKHQTTSTSKPASFQQPLGSNQALGQAMSSAAAYRTLPSGAGGTSQFTKPPSLPLEPEPAVESSPTETSEQIREK [L327P]	disrupting interaction strength
MAEERVATRTQFPVSTESQKPRQKKAPEFPILEKQNWLIHLHYIRKDYEACKAVIKEQLQETQGLCEYAIYVQALIFRLEGNIQESLELFQTCAVLSPQSADNLKQVARSLFLLGKHKAAIEVYNEAAKLNQKDWEISHNLGVCYIYLKQFNKAQDQLHNALNLNRHDLTYIMLGKIHLLEGDLDKAIEVYKKAVEFSPENTELLTTLGLLYLQLGIYQKAFEHLGNALTYDPTNYKAILAAGSMMQTHGDFDVALTKYRVVACAVPESPPLWNNIGMCFFGKKKYVAAISCLKRANYLAPFDWKILYNLGLVHLTMQQYASAFHFLSAAINFQPKMGELYMLLAVALTNLEDIENAKRAYAEAVHLDKCNPLVNLYYAVLLYNQGEKKNALAQYQEMEKKVSLLKDNSSLEFDSEMVEMAQKLGAALQVGEALVWTKPVKDPKSKHQTTSTSKPASFQQPLGSNQALGQAMSSAAAYRTLPSGAGGTSQFTKPPSLPLEPEPAVESSPTETSEQIREK [N377Y]	disrupting interaction strength

Variants of: B2
Settings: with bbip1_human BBIP1, A8MTZ0
Remark: another data set of the same source

Variant	effect of a mutation on the interaction
MAEERVATRTQFPVSTESQKPRQKKAPEFPILEKQNWLIHLHYIRKDYEACKAVIKEQLQETQGLCEYAIYVQALIFRLEGNIQESLELFQTCAVLSPQSADNLKQVARSLFLLGKHKAAIEVYNEAAKLNQKDWEISHNLGVCYIYLKQFNKAQDQLHNALNLNRHDLTYIMLGKIHLLEGDLDKAIEVYKKAVEFSPENTELLTTLGLLYLQLGIYQKAFEHLGNALTYDPTNYKAILAAGSMMQTHGDFDVALTKYRVVACAVPEEPPLWNNIGMCFFGKKKYVAAISCLKRANYLAPFDWKILYNLGLVHLTMQQYASAFHFLSAAINFQPKMGELYMLLAVALTNLEDIENAKRAYAEAVHLDKCNPLVNLNYAVLLYNQGEKKNALAQYQEMEKKVSLLKDNSSLEFDSEMVEMAQKLGAALQVGEALVWTKPVKDPKSKHQTTSTSKPASFQQPLGSNQALGQAMSSAAAYRTLPSGAGGTSQFTKPPSLPLEPEPAVESSPTETSEQIREK [S269E]	with no effect
MAEERVATRTQFPVSTESQKPRQKKAPEFPILEKQNWLIHLHYIRKDYEACKAVIKEQLQETQGLCEYAIYVQALIFRLEGNIQESLELFQTCAVLSPQSADNLKQVARSLFLLGKHKAAIEVYNEAAKLNQKDWEISHNLGVCYIYLKQFNKAQDQLHNALNLNRHDLTYIMLGKIHLLEGDLDKAIEVYKKAVEFSPENTELLTTLGLLYLQLGIYQKAFEHLGNALTYDPTNYKAILAAGSMMQTHGDFDVALTKYRVVACAVPEAPPLWNNIGMCFFGKKKYVAAISCLKRANYLAPFDWKILYNLGLVHLTMQQYASAFHFLSAAINFQPKMGELYMLLAVALTNLEDIENAKRAYAEAVHLDKCNPLVNLNYAVLLYNQGEKKNALAQYQEMEKKVSLLKDNSSLEFDSEMVEMAQKLGAALQVGEALVWTKPVKDPKSKHQTTSTSKPASFQQPLGSNQALGQAMSSAAAYRTLPSGAGGTSQFTKPPSLPLEPEPAVESSPTETSEQIREK [S269A]	with no effect
MAEERVATRTQFPVSTESQKPRQKKAPEFPILEKQNWLIHLHYIRKDYEACKAVIKEQLQETQGLCEYAIYVQALIFRLEGNIQESLELFQTCAVLSPQSADNLKQVARSLFLLGKHKAAIEVYNEAAKLNQKDWEISHNLGVCYIYLKQFNKAQDQLHNALNLNRHDLTYIMLGKIHLLEGDLDKAIEVYKKAVEFSPENTELLTTLGLLYLQLGIYQKAFEHLGNALTYDPTNYKAILAAGSMMQTHGDFDVALTKYRVVACAVPKSPPLWNNIGMCFFGKKKYVAAISCLKRANYLAPFDWKILYNLGLVHLTMQQYASAFHFLSAAINFQPKMGELYMLLAVALTNLEDIENAKRAYAEAVHLDKCNPLVNLNYAVLLYNQGEKKNALAQYQEMEKKVSLLKDNSSLEFDSEMVEMAQKLGAALQVGEALVWTKPVKDPKSKHQTTSTSKPASFQQPLGSNQALGQAMSSAAAYRTLPSGAGGTSQFTKPPSLPLEPEPAVESSPTETSEQIREK [E268K]	with no effect
MAEERVATRTQFPVSTESQKPRQKKAPEFPILEKQNWLIHLHYIRKDYEACKAVIKEQLQETQGLCEYAIYVQALIFRLEGNIQESLELFQTCAVLSPQSADNLKQVARSLFLLGKHKAAIEVYNEAAKLNQKDWEISHNLGVCYIYLKQFNKAQDQLHNALNLNRHDLTYIMLGKIHLLEGDLDKAIEVYKKAVEFSPENTELLTTLGLLYLQLGIYQKAFEHLGNALTYDPTNYKAILAAGSMMQTHGDFDVALTKYRVVACAVPASPPLWNNIGMCFFGKKKYVAAISCLKRANYLAPFDWKILYNLGLVHLTMQQYASAFHFLSAAINFQPKMGELYMLLAVALTNLEDIENAKRAYAEAVHLDKCNPLVNLNYAVLLYNQGEKKNALAQYQEMEKKVSLLKDNSSLEFDSEMVEMAQKLGAALQVGEALVWTKPVKDPKSKHQTTSTSKPASFQQPLGSNQALGQAMSSAAAYRTLPSGAGGTSQFTKPPSLPLEPEPAVESSPTETSEQIREK [E268A]	with no effect
